Consider one substance from paper PMC5052650.

The assay deals with ARTD2 N+WGR fragment (human). Kind of assay: SAXS; proteins without DNA; measured without chromatography at three different concentrations; MW from Porod volume divided by 1.7.

ARTD2 N+WGR fragment (domain or fragment), sequence (Q9UGN5 99-206): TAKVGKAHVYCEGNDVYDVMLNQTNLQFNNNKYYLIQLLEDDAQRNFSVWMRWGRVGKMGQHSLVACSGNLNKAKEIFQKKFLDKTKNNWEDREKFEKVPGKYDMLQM

As usually defined, the stoichiometry N is the number of molecules, sites or subunits per partner or assembly. In turn, “ARTD2 N+WGR fragment (domain or fragment)” displayed a stoichiometry N of 2.
